Measured values taken from PMC4352707.

Biological target: Cry1 (UniProt P97784)
Experiment: co-IP, immunoblot
Conditions: reference: wild-type Hausp; sites S18

Substance: Hausp (Usp7), Hausp-V5 (from UniProt Q93009) Hausp S18A
- binding against the reference: stronger
